How the values were obtained:
[1] = molecular target: CD-30 on Karpas 299 and L540 cells (UniProt P28908); test: FACS-based cell binding on L540 cells, Alexa-488 goat anti-human IgG detection, MFI normalised to the averaged maximum (% binding)
[2] = molecular target: CD-30 on Karpas 299 and L540 cells (UniProt P28908); test: flow cytometry on L540 cells, one site-total binding fit
[3] = molecular target: CD-30 on Karpas 299 and L540 cells (UniProt P28908); test: flow cytometry on Karpas 299 cells, one site-total binding fit
[4] = molecular target: CD-30 on Karpas 299 and L540 cells (UniProt P28908); test: FACS-based cell binding on Karpas 299 cells, Alexa-488 goat anti-human IgG detection, MFI normalised to the averaged maximum (% binding)
[5] = molecular target: HER2 on SKBR3 cells (UniProt P04626); test: flow cytometry on SKBR3 cells, one site specific binding fit; column head prints 'Cell Binding IC50, nM' (heads of c3 and c4 seem swapped)
[6] = molecular target: HER2 on SKBR3 cells (UniProt P04626); test: flow cytometry on SKBR3 cells

UniProt P28908, sequence (P28908 19-595 limits assumed): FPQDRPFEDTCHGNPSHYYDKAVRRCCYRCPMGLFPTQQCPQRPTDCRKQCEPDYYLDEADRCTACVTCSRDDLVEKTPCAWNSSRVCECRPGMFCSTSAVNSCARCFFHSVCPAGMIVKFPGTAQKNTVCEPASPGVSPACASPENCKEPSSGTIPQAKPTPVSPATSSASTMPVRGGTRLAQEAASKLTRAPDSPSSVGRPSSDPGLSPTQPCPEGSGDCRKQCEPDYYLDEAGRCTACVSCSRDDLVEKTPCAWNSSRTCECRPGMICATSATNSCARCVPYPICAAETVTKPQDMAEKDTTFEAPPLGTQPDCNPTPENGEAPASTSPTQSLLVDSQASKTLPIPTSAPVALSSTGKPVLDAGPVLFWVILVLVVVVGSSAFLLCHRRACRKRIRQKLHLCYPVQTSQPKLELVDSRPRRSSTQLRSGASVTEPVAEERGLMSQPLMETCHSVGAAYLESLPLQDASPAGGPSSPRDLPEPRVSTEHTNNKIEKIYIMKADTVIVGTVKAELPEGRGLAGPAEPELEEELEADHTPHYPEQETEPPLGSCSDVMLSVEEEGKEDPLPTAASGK

Row | EC50 (read off the curve) [1] | Kd [2] | Kd [3] | EC50 (read off the curve) [4] | Kd [5] | Kd [6] | Substance
1 | 1000 pM | – | – | – | – | – | Adcetris HC F404 unconjugated (antibody)
2 | 700 pM | 810 pM | 460 pM | 300 pM | – | – | Aglycosylated Brentuximab IgG HC-F404 conjugated to DBCO-MMAF 2 (antibody)
3 | 600 pM | 1000 pM | 500 pM | 400 pM | – | – | Aglycosylated Brentuximab IgG LC-N152 conjugated to DBCO-MMAF 2 (antibody)
4 | – | – | – | – | 14000 pM | – | Trastuzumab scFv (VL_VH) with pN3F at position (-1), conjugated to DBCO-MMAF

Continued, substance first:

Row | Substance | EC50 (read off the curve) [1] | Kd [2] | Kd [3] | EC50 (read off the curve) [4] | Kd [5] | Kd [6]
5 | Adcetris HC K121 unconjugated (antibody) | 800 pM | – | – | – | – | –
6 | Aglycosylated Brentuximab IgG HC-K121 conjugated to DBCO-MMAF 2 (antibody) | – | 1300 pM | 520 pM | 400 pM | – | –
7 | Trastuzumab scFv-Fc (-1) pN3F conjugated to DBCO-MMAF (Fc fusion) | – | – | – | – | – | 6800 pM

Reference: patent publication US20170362341A1
